# According to US20230167188A1 (BIOLOJIC DESIGN, published 2023):
# T1: recombinant human TNFR2 with 6×his tag (human, UniProt P20333 23-257, limits assumed)
# T1 construct: Bought (Reprokine, Israel); also called TNFR2-His; hTNFR2-His; not shown: 6xHis tag
# T1 sequence (looked up): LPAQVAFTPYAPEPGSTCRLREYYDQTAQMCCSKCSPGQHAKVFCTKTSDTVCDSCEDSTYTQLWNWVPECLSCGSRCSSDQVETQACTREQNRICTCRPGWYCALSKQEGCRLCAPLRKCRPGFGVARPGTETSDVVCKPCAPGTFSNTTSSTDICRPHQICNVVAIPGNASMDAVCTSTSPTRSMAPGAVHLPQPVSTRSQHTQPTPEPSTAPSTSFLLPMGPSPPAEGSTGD
# Biological target: T1, recombinant human TNFR2 with 6×his tag
# Assay: ELISA, IgG coated, hTNFR2-His titrated, anti-His-HRP
# Experimental: (§1) IgG binding affinity to TNFR2 was examined by ELISA. 96 well plates (Greiner Bio-One high binding) were coated with (50 ng/well) of the analyzed antibody and incubated overnight at 4° C. The plates were then washed three times with 300 μl PBS buffer containing 0.05% Tween 20 (PBS-T), blocked with 300μ PBS-T supplemented with 1% to 2% BSA, and incubated for 1 hour at room temperature. Antibodies-coated plates were washed three times with 300 μl PBS-T and incubated with serial dilutions of test ligand hTNFR2-His (Reprokine, Israel) in a final volume of […] for 1-2 hours. Plates were then washed three times with 300 μl PBS-T and incubated with 50 μl anti-HIS-HRP (Santa Cruz Biotechnology, USA, SC-8036HRP) conjugate that was diluted 1:250 in PBS. After an additional wash step of six washes, the reaction was developed with […] tetramethylbenzidine (TMB) reagent (Southern biotech, USA), and stopped with […] 0.5N H₂SO₄. Detection was done on a Synergy LX BioTek (BioTek, USA) plate reader with an absorbance filter set to […]. The binding affinity was determined by fitting the data to a specific binding non-linear regression model on Prisma 8 GraphPad software.
# (§2) To test binding affinity of clones reformatted as IgG1 and IgG1LALA to TNFR2, an ELISA EC₅₀ binding experiment was conducted for each antibody.
row,Binder,EC50
1,"BDG30.080 (antibody, human IgG1, kappa, V domains shown, Human IgG1; also called IgG of CID_229) VH: EVQLVESGGGLVQPGGSLRLSCAASGFNIRAMYIHWVRQSPGKGLEWVADIDPTNGDTRYADSVKGRFTISADTSKNTAYLQMNSLRAEDTAIYYCTREGQDGYNAFDKWGQGTLVTVSS VL: DIQMTQSPILLSASVGDRVTITCRASQDVSTAVAWSQQRTNGSPRLLIYSASSLYSGVPSRFSGSRSGTDFTLTISSLQPEDIADYYCQQHRYTPPTFGAGTKVEIKR",66.3 nM

# Biological target: T1, recombinant human TNFR2 with 6×his tag
# Assay: yeast surface display, TNFR2-His titrated, flow cytometry MFI
# Experimental: To determine the effective concentration₅₀ (EC₅₀) of TNFR2 binding to yeast scFv or Fab clones (EC₅₀— TNFR2 binding), specific clones were labeled at TNFR concentrations ranging from 0.1 nM to 1000 nM and analyzed on an FACS. Median fluorescence intensity (MFI) was determined for each TNFR2 concentration and EC₅₀ (TNFR2 binding) was calculated using Prisma 8 GraphPad (GraphPad, San Diego, USA) software.
row,Binder,EC50
1,CID_436 (scFv) scFv: DIQMTQSPILLSASVGDRVTITCRASQDVSTAVAWSQQRTNGSPRLLIYSASSLYSGVPSRFSGSRSGTDFTLTISSLQPEDIADYYCQQPTYTPPTFGAGTKVEIKEVQLVESGGGLVQPGGSLRLSCAASGFNIRDTYIHWVRQSPGKGLEWVADIDPDNGDTRYADSVKGRFTISADTSKNTAYLQMNSLRAEDTAIYYCSRDLADGYNAFDRWGQGTLVTVSS,3.4 nM
2,CID_437 (scFv) scFv: DIQMTQSPILLSASVGDRVTITCRASQDVSTAVAWSQQRTNGSPRLLIYSASSLYSGVPSRFSGSRSGTDFTLTISSLQPEDIADYYCQQPPYTPPTFGAGTKVEIKEVQLVESGGGLVQPGGSLRLSCAASGFNIRDTFIHWVRQSPGKGLEWVADIDPDNGDTRYADSVKGRFTISADTSKNTAYLQMNSLRAEDTAIYYCSREGEDGYNAWDLWGQGTLVTVSS,1.2 nM
3,CID_324 (scFv) scFv: EVQLVQSGPELKKPGASVKVSCKGSGYTFTDLGINWVRQAPGQGLEWMGWINTHTGEPFYADDFKGRFVFSLDTSVSTAYLQISSLKAEDTAVYYCTRDHPLGLDYWGQGTLVTVSSDIQVTQSPSSLSASVGDRVTITCITSQSVDVNGVSYLNWYQQKPGKVPKFLIYKASRLRSGVPSRFSGSGSGTDFTLTISSLQPEDVATYYCQQSREDPYTFGQGTKVEIK,5.6 nM
4,CID_328 (scFv) scFv: EVQLVQSGPELKKPGASVKVSCKGSGYTFTDLGMNWVRQAPGQGLEWMGWINTQTGEPFYADDFKGRFVFSLDTSVSTAYLQISSLKAEDTAVYFCARDHPLGLDYWGQGTLVTVSSDIQVTQSPSSLSASVGDRVTITCITSQSVDVNGVSYLNWYQQKPGKVPKFLIYKASILRSGVPSRFSGSGSGTDFTLTISSLQPEDVATYYCQQSREDPYTFGQGTKVEIK,5.7 nM
5,CID_329 (scFv) scFv: EVQLVQSGPELKKPGASVKVSCKGSGYTFTDLGINWVRQAPGQGLEWMGWINTHTGEPFYADDFKGRFVFSLDTSVSTAYLQISSLKAEDTAVYFCTRDHPLGLDYWGQGTLVTVSSDIQVTQSPSSLSASVGDRVTITCITSQSVDVNGVSYLNWYQQKPGKVPKFLIYKASNLRPGVPSRFSGSGSGTDFTLTISSLQPEDVATYYCQQSREDPYTFGQGTKVEIK,8.6 nM
6,CID_326 (scFv) scFv: EVQLVQSGPELKKPGASVKVSCKASGYTFTDLGMNWVRQAPGQGLEWMGWINTHTGKPFYADDFKGRFVFSLDTSVSTAYLQISSLKAEDTAVYYCTRDHPLGLDYWGQGTLVTVSSDIQVTQSPSSLSASVGDRVTITCITSQSVDVNGVSYLNWYQQKPGKVPKFLIYKASNLRSGVPSRFSGSGSGTDFTLTISSLQPEDVATYYCQQSREDPYTFGQGTKVEIK,6 nM
7,CID_327 (scFv) scFv: EVQLVQSGPELKKPGASVKVSCKGSGYTFTDLGMGWVRQAPGQGLEWMGWINTQTGEPFYADDFKGRFVFSLDTSVSTAYLQISSLKAEDTAVYYCTRDHPLGLDYWGQGTLVTVSSDIQVTQSPSSLSASVGDRVTITCITSQSVDVAGVSYLNWYQQKPGKVPKFLIHKASNLRSGVPSRFSGSGSGTDFTLTISSLQPEDVATYYCQQAREDPYTFGQGTKVEIK,4.5 nM
8,CID_330 (scFv) scFv: EVQLVQSGPELKKPGASVKVSCKGSGYTFTDLGINWVRQAPGQGLEWMGWINTHTGEPYYADDFKGRFVFSLDTSVSTAYLQISSLKAEDTAVYYCARDHPLGLDYWGQGTLVTVSSDIQVTQSPSSLSASVGDRVTITCITSQSVDVNGVSYMNWYQQKPGKVPKFLIYKAVNLRPGVPSRFSGSGSGTDFTLTISSLQPEDVATYYCQQSREDPYTFGQGTKVEIK,17.7 nM
9,CID_325 (scFv) scFv: EVQLVQSGPELKKPGASVKVSCKASGYTFTDLGIGWVRQAPGQGLEWMGWINTHTGEPFYADDFKGRFVFSLDTSVSTAYLQISSLKAEDTAVYYCTRDHPLGLDYWGQGTLVTVSSDIQVTQSPSSLSASVGDRVTITCITSQSVDVNGLSYLNWYQQKPGKVTKFLIYKASNLGSGVPSRFSGSGSGTDFTLTISSLQPEDVATYYCQQSREDPYTFGQGTKVEIK,2.9 nM
10,CID_323 (scFv) scFv: EVQLVQSGPELKKPGASVKVSCKASGYTFTDLGMNWVRQAPGQGLEWMGWINTHTGMPFYADDFKGRFVFSLDTSVSTAYLQISSLKAEDTAVYYCARDHPLGLDYWGQGTLVTVSSDIQVTQSPSSLSASVGDRVTITCITSQSVDVNGVSYLNWYQQKPGKVPKFLIYKASNLRPGVPSRFSGSGSGTDFTLTISSLQPEDVATYYCQQSREDPYTFGQGTKVEIK,5.2 nM
11,CID_251 (scFv) scFv: EVQLVQSGAEVKKPGSSVKVSCKASGDTFTSYSFNWVRQAPGQGLEWMGRIITILDDTEYAPHLQGRVTITADKSTSTVYLELRNLRSDDTAVYFCAGVYEGPNSEGSYDDYGFLKHWGQGTLVTVSSDIVMTQSPATLSVSPGERATLSCRASESVANDLAWYQQKPGQVPRLLIYGASTRATGVPARFSGSGSGAEFTLTISSLQSEDFAVYYCQQYANWPPRETFGQGTRLEIK,1 nM

# Biological target: T1, recombinant human TNFR2 with 6×his tag
# Assay: ELISA, IgG coated, soluble TNFR2-His titrated
# Experimental: as §1, §2
row,Binder,EC50
1,"BDG30.080 (antibody, human IgG1, kappa, V domains shown, Human IgG1; also called IgG of CID_229) VH: EVQLVESGGGLVQPGGSLRLSCAASGFNIRAMYIHWVRQSPGKGLEWVADIDPTNGDTRYADSVKGRFTISADTSKNTAYLQMNSLRAEDTAIYYCTREGQDGYNAFDKWGQGTLVTVSS VL: DIQMTQSPILLSASVGDRVTITCRASQDVSTAVAWSQQRTNGSPRLLIYSASSLYSGVPSRFSGSRSGTDFTLTISSLQPEDIADYYCQQHRYTPPTFGAGTKVEIKR",66 nM
